Patent publication US20260022184

Legend:
[1] = target: T1, CM2
T1 chain: MVLSAVTASG

[2] = target: SB1902-C4
[3] = target: T2, CM8
T2 chain: MVASALTASG

[4] = target: T3, CM9
T3 chain: MVVSALTASG

[5] = target: T4, CM7
T4 chain: MVPSAYTASG

[6] = target: SB1902-C2
[7] = target: SB1902-C5
[8] = target: T5, CM6
T5 chain: MVPSAVTASG

[9] = target: T6, CM5
T6 chain: MVLSAPTASG

[10] = target: T7, CM10
T7 chain: MVPSALTVSG

Sequence of SB1902-C2 (chain, as listed by the source, chain 1 of 2): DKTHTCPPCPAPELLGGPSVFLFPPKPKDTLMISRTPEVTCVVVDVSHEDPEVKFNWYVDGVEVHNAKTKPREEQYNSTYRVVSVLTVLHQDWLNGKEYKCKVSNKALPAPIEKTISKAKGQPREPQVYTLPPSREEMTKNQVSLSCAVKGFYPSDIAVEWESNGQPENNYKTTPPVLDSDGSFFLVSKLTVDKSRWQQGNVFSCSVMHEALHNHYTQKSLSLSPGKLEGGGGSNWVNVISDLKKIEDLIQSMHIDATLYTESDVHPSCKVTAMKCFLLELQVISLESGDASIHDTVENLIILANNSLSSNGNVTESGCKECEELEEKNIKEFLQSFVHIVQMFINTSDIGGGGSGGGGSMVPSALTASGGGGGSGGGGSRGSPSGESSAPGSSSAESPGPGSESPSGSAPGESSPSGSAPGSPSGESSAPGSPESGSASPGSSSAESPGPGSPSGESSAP
Sequence of SB1902-C2 (chain, as listed by the source, chain 2 of 2): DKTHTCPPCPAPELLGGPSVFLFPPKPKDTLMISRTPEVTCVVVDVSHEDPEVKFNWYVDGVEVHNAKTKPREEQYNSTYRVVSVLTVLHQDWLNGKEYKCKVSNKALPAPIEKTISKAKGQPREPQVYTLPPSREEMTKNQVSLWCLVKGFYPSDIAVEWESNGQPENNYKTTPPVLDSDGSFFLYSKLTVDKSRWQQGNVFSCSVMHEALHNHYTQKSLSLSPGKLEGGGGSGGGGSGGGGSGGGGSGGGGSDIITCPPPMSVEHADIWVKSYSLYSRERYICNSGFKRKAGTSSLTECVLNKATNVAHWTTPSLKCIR
Sequence of SB1902-C5 (chain, as listed by the source, chain 1 of 2): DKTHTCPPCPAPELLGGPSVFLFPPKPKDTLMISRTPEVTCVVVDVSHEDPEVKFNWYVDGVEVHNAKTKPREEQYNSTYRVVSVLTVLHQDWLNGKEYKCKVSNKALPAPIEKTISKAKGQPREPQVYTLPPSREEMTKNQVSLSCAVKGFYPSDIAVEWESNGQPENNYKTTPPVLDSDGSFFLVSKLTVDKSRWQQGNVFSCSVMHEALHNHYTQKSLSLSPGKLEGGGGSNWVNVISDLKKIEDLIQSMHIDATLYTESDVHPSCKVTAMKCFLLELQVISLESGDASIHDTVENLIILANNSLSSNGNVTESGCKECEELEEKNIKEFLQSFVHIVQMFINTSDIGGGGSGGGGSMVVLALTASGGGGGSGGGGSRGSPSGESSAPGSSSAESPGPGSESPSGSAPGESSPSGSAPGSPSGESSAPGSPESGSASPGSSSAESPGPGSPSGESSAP
Sequence of SB1902-C5 (chain, as listed by the source, chain 2 of 2): as the sequence (chain, as listed by the source, chain 2 of 2) above
Sequence of SB1902-C4 (chain, as listed by the source, chain 1 of 2): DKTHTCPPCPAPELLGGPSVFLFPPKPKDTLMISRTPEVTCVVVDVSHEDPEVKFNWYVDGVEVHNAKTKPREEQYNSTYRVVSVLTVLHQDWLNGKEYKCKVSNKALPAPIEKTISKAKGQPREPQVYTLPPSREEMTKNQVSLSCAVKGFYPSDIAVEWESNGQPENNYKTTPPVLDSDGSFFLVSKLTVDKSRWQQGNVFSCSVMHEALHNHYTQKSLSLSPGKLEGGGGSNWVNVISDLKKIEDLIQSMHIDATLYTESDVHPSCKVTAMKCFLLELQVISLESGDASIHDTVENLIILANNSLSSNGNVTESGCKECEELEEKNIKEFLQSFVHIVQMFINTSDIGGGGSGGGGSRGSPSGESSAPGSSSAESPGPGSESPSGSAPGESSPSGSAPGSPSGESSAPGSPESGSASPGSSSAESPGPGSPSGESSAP
Sequence of SB1902-C4 (chain, as listed by the source, chain 2 of 2): as the sequence (chain, as listed by the source, chain 2 of 2) above

B1: recombinant human MMP9 (protein)
chain: MRTPRCGVPDLGRFQTFEGDLKWHHHNITYWIQNYSEDLPRAVIDDAFARAFALWSAVTPLTFTRVYSRDADIVIQFGVAEHGDGYPFDGKDGLLAHAFPPGPGIQGDAHFDDDELWSLGKGVVVPTRFGNADGAACHFPFIFEGRSYSACTTDGRSDGLPWCSTTANYDTDDRFGFCPSERLYTQDGNADGKPCQFPFIFQGQSYSACTTDGRSDGYRWCATTANYDRDKLFGFCPTRADSTVMGGNSAGELCVFPFTFLGKEYSTCTSEGRGDGRLWCATTSNFDSDKKWGFCPDQGYSLFLVAAHEFGHALGLDHSSVPEALMYPMYRFTEGPPLHKDDVNGIRHLYGPRPEPEPRPPTTTTPQPTAPPTVCPTGPPTVHPSERPTAGPTGPPSAGPTGPPTAGPSTATTVPLSPVDDACNVNIFDAIAEIGNQLYLFKDGKYWRFSEGRGSRPQGPFLIADKWPALPRKLDSVFEERLSKKLFFFSGRQVWVYTGASVLGPRRLDKLGLGADVAQVTGALRSGRGKMLLFSGRRLWRFDVKAQMVDPRSASEVDRMFPGVPLDTHDVFQYREKAYFCQDRFYWRVSSRSELNQVDQVGYVTYDILQCPED
in vitro protease digestion (data not shown) [1]: The other cleavable moieties (such as CM2, CM5-CM10) was also cleavable in vitro by both MMP2 and MMP9 (data not shown)
in vitro protease digestion, polyacrylamide gel [2]: the non-cleavable G4S linker in SB1902-C4 was resistant to both MMP2 and MMP9 enzyme digestion
in vitro protease digestion (data not shown) [3]: The other cleavable moieties (such as CM2, CM5-CM10) was also cleavable in vitro by both MMP2 and MMP9 (data not shown)
in vitro protease digestion (data not shown) [4]: The other cleavable moieties (such as CM2, CM5-CM10) was also cleavable in vitro by both MMP2 and MMP9 (data not shown)
in vitro protease digestion (data not shown) [5]: The other cleavable moieties (such as CM2, CM5-CM10) was also cleavable in vitro by both MMP2 and MMP9 (data not shown)
in vitro protease digestion, polyacrylamide gel [6]: The mutated substrate CM1 was cleavable in vitro by both MMP2 and MMP9 enzymes, with an enzyme dose-dependent manner
in vitro protease digestion, polyacrylamide gel [7]: The mutated substrate CM4 was cleavable in vitro by both MMP2 and MMP9 enzymes, with an enzyme dose-dependent manner
in vitro protease digestion (data not shown) [8]: The other cleavable moieties (such as CM2, CM5-CM10) was also cleavable in vitro by both MMP2 and MMP9 (data not shown)
in vitro protease digestion (data not shown) [9]: The other cleavable moieties (such as CM2, CM5-CM10) was also cleavable in vitro by both MMP2 and MMP9 (data not shown)
in vitro protease digestion (data not shown) [10]: The other cleavable moieties (such as CM2, CM5-CM10) was also cleavable in vitro by both MMP2 and MMP9 (data not shown)

B2: recombinant human MMP2 (protein)
chain: YNFFPRKPKWDKNQITYRIIGYTPDLDPETVDDAFARAFQVWSDVTPLRFSRIHDGEADIMINFGRWEHGDGYPFDGKDGLLAHAFAPGTGVGGDSHFDDDELWTLGEGQVVRVKYGNADGEYCKFPFLFNGKEYNSCTDTGRSDGFLWCSTTYNFEKDGKYGFCPHEALFTMGGNAEGQPCKFPFRFQGTSYDSCTTEGRTDGYRWCGTTEDYDRDKKYGFCPETAMSTVGGNSEGAPCVFPFTFLGNKYESCTSAGRSDGKMWCATTANYDDDRKWGFCPDQGYSLFLVAAHEFGHAMGLEHSQDPGALMAPIYTYTKNFRLSQDDIKGIQELYGASPDIDLGTGPTPTLGPVTPEICKQDIVFDGIAQIRGEIFFFKDRFIWRTVTPRDKPMGPLLVATFWPELPEKIDAVYEAPQEEKAVFFAGNEYWIYSASTLERGYPKPLTSLGLPPDVQRVDAAFNWSKNKKTYIFAGDKFWRYNEVKKKMDPGFPKLIADAWNAIPDNLDAVVDLQGGGHSYFFKGAYYLKLENQSLKSVKFGSIKSDWLGC
in vitro protease digestion (data not shown) [1]: The other cleavable moieties (such as CM2, CM5-CM10) was also cleavable in vitro by both MMP2 and MMP9 (data not shown)
in vitro protease digestion, polyacrylamide gel [2]: the non-cleavable G4S linker in SB1902-C4 was resistant to both MMP2 and MMP9 enzyme digestion
in vitro protease digestion (data not shown) [3]: The other cleavable moieties (such as CM2, CM5-CM10) was also cleavable in vitro by both MMP2 and MMP9 (data not shown)
in vitro protease digestion (data not shown) [4]: The other cleavable moieties (such as CM2, CM5-CM10) was also cleavable in vitro by both MMP2 and MMP9 (data not shown)
in vitro protease digestion (data not shown) [5]: The other cleavable moieties (such as CM2, CM5-CM10) was also cleavable in vitro by both MMP2 and MMP9 (data not shown)
digestion efficiency by SDS-PAGE (1 µg activated MMP2, 250 µg prodrug, 37° C., 5 hrs) [6]: about 90% of the prodrug SB1902-C2 was digested
in vitro protease digestion, polyacrylamide gel [6]: The mutated substrate CM1 was cleavable in vitro by both MMP2 and MMP9 enzymes, with an enzyme dose-dependent manner
in vitro protease digestion, polyacrylamide gel [7]: The mutated substrate CM4 was cleavable in vitro by both MMP2 and MMP9 enzymes, with an enzyme dose-dependent manner
in vitro protease digestion (data not shown) [8]: The other cleavable moieties (such as CM2, CM5-CM10) was also cleavable in vitro by both MMP2 and MMP9 (data not shown)
in vitro protease digestion (data not shown) [9]: The other cleavable moieties (such as CM2, CM5-CM10) was also cleavable in vitro by both MMP2 and MMP9 (data not shown)
in vitro protease digestion (data not shown) [10]: The other cleavable moieties (such as CM2, CM5-CM10) was also cleavable in vitro by both MMP2 and MMP9 (data not shown)
